{
  "source": "patent US12577311",
  "about": "(Dana-Farber, dated 2026)",
  "binders": {"B1": {"name": "anti-CAIX (G36) CAR (scFv, V domains shown)", "VH": "EVQLVQSGGGVVQPGGSLRLSCAASGFPFSSYAMSWVRQAPGKGLEWVSAISANGGTTYYADSVKGRFTISRDNSKNTLYLQMNSLRAEDTAVYYCANNGNYRGAFDIWGQGTMVTVSS", "VL": "QSVLTQPPSVSGAPGQRVTISCTGSSSNIGAGFDVHWYQQLPGTAPKLLIYGNTNRPSGVPDRFSGSKSGTSASLAITGLQAEDETDYYCQSYDSRLSAWVFGGGTKLTVLG"}},
  "assay_in_all_cases": "cell-based or functional assay",
  "key": {"[1]": {"molecular_target": "monkey CAIX on transduced skrc-59 cells (monkey)"}, "[2]": {"molecular_target": "mouse CAIX on transduced skrc-59 cells (mouse, UniProt Q8VHB5 32-437)", "sequence (Q8VHB5 32-437)": "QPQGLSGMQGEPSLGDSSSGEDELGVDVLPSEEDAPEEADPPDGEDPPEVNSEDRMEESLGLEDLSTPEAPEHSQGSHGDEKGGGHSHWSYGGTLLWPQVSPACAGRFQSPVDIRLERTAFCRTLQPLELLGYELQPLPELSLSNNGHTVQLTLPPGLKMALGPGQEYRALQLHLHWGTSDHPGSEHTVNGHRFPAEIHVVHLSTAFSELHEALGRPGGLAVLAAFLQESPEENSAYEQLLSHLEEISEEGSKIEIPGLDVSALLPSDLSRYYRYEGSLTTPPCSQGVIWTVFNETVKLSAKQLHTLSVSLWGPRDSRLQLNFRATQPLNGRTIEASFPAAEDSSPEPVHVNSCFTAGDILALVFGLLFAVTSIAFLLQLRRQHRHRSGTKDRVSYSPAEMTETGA"}, "[3]": {"molecular_target": "hamster CAIX on transduced skrc-59 cells (hamster)"}},
  "data": [
    {"binder": "B1", "values": [
      {"measurement": "killing assay of anti-CAIX (G36) CAR T cells", "setting": "[1]", "result": 100, "unit": "%"},
      {"measurement": "killing assay of anti-CAIX (G36) CAR T cells", "setting": "[2]", "result": 50, "unit": "%"},
      {"measurement": "killing assay of anti-CAIX (G36) CAR T cells", "setting": "[3]", "result": 50, "unit": "%"}
    ]}
  ]
}
